# Source: patent publication US20230416760A1 (CURATORS OF THE UNIVERSITY OF MISSOURI, published 2023)
# T1: heteromeric acetyl-coenzyme A carboxylase (hetACCase) of Arabidopsis thaliana (Arabidopsis thaliana)
# T1 chain 1: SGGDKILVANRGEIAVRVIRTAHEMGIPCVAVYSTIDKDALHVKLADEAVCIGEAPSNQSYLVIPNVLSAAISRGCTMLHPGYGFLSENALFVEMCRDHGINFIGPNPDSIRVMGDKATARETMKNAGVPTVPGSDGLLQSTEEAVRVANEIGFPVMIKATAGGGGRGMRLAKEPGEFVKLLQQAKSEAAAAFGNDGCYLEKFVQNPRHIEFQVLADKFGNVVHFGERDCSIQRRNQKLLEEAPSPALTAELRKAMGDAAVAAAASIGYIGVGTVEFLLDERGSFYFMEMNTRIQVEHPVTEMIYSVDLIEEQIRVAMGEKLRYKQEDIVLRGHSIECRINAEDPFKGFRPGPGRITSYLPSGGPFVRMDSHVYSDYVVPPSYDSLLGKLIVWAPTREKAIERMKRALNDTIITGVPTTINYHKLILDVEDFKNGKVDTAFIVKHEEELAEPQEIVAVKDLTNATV
# T1 chain 2: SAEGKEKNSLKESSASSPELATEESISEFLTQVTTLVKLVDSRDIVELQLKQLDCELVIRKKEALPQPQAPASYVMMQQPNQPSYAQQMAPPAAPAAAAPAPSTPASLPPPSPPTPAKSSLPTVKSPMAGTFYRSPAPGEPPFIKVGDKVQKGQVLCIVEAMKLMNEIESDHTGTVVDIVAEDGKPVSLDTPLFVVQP
# T1 chain 3: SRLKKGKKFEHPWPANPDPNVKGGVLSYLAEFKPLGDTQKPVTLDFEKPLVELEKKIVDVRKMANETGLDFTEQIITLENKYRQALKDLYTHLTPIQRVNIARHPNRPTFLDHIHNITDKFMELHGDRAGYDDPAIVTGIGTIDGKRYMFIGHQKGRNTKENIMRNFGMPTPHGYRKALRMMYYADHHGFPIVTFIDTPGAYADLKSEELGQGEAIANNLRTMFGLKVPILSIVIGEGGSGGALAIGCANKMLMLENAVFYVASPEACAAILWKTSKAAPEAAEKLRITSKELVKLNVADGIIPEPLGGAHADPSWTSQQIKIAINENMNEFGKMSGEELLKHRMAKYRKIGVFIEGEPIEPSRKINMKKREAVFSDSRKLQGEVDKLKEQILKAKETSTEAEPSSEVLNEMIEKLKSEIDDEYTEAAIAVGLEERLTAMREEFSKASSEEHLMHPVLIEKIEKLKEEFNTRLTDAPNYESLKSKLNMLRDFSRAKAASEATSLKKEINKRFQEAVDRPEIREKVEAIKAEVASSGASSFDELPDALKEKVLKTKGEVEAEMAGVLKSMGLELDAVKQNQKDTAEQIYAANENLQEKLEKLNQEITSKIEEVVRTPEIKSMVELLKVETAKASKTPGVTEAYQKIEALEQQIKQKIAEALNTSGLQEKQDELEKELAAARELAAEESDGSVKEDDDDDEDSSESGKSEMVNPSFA
# T1 chain 4: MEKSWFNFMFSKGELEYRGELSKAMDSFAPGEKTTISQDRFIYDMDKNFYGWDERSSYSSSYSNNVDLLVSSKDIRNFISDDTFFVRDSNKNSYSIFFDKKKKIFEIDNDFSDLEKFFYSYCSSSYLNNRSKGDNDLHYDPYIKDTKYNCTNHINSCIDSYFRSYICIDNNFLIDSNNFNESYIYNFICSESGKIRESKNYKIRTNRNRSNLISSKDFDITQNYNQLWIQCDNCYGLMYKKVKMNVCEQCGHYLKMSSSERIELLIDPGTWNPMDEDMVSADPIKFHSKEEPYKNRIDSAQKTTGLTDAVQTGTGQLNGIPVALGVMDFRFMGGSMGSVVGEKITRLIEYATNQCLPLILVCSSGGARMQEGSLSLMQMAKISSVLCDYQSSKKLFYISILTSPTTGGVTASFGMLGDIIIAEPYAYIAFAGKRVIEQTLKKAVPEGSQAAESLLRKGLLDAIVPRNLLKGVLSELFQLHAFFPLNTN
# Experiments:
# [1] = tested on: all three BADCs (recombinant BADC1, BADC2, BADC3)
# [2] = target: α-carboxyltransferase (α-CT) subunit of hetACCase, AT2G38040, Arabidopsis thaliana (Arabidopsis thaliana) (UniProt Q9LD43); experiment: co-IP from A. thaliana chloroplast lysate with anti-α-CT antibody, LC-MS/MS, n=7
# [3] = target: BCCP2 (AT5G15530), biotin carboxyl carrier protein isoform 2, Arabidopsis thaliana (Arabidopsis thaliana) (UniProt Q9LLC1); experiment: co-IP from A. thaliana chloroplast lysate with anti-BCCP2 antibody, LC-MS/MS, n=7
# [4] = target: T1, heteromeric acetyl-coenzyme A …; experiment: inhibition of ACCase activity in 20-day-old A. thaliana leaf extracts by increasing concentrations of recombinant BADC1
# Procedure: ACCase activity was monitored in vitro in 20-day-old A. thaliana leaf extracts with increasing concentrations of recombinant BADC1. Specific activity was determined for each experiment and 0 μM controls were normalized to 1. Specific activity values for controls ranged from 0.84-2.00 nmol/min/mg. Each data point represented the average of four biological replicates, with each biological replicate comprised of four light-adapted leaves.
# [5] = target: the molecule itself; experiment: intact mass analysis and non-reducing SDS-PAGE of purified recombinant protein
replicates (of seven) of the co-IP in which the protein was present [3],Ki [4],Molecule,"hetACCase activity in ten-day-old A. thaliana silique extracts (H14CO3 incorporation), 10 µM recombinant protein [1]",replicates (of seven) of the co-IP in which the protein was present [2],binding result [5]
–,–,heteromeric acetyl-coenzyme A carboxylase (hetACCase) of Arabidopsis thaliana,all three BADCs inhibited hetACCase activity by 25 to 37%,–,–
7 replicates,~4.3 µM,"BADC1 (AT3G56130), biotin/lipoyl attachment domain-containing protein, Arabidopsis thaliana (other, Recombinant and yeast two-hybrid constructs were made without the transit peptide predicted by TargetP; also called AtBADC1) AKAAKSSTTTISDGSSDASVSDGKKTVRRITFPKEVEALVHEMCDETEVAVLQLKVGDFEMNLKRKIGAATNPIPVADISPTVAPPIPSEPMNKSASSAPSPSQAKPSSEKVSPFKNTSYGKPAKLAALEASGSTNYVLVTSPAVGKFQRSRTVKGKKQSPSCKEGDAIKEGQVIGYLHQLGTELPVTSDVAGEVLKLLSDDGDSVGYGDPLVAVLPSFHDINIQ",–,1 replicates,–
6 replicates,–,"BADC2 (AT1G52670), Single hybrid motif protein, Arabidopsis thaliana (other, His-tagged or untagged from E. coli, bait/prey fusion in yeast two-hybrid, native protein in co-IPs; also called AtBADC2) TTLRSVKAIQLSTVPPAETEAIADVKDSDETKSTVVNTHLMPKSSEVEALISEITDSSSIAEFELKLGGFRLYVARKLTDESSPPPQQIQPVVAASATPEGVHTNGSATSSSLAITKTSSSSADRPQTLANKAADQGLVILQSPTVGYFRRSKTIKGKRTPTICKEKDIVKEGQVLCYIEQLGGQIPVESDVSGEIVKILREDGEPVGYNDALITVLPSFPGIKKLQ",–,2 replicates,no binding
